Test results: patent publication US20190284258A1, “HAEMADIPSA SYLVESTRIS ANTITHROMBOTIC PEPTIDE SYLVESTIN AND USE THEREOF” (priority 2016, published 2019)

Biological target: FXIIa
Test: enzyme inhibition kinetics, chromogenic substrate, OD 405 nm

Sequence of FXIIa (P00748 20-372, chain 1 of 2): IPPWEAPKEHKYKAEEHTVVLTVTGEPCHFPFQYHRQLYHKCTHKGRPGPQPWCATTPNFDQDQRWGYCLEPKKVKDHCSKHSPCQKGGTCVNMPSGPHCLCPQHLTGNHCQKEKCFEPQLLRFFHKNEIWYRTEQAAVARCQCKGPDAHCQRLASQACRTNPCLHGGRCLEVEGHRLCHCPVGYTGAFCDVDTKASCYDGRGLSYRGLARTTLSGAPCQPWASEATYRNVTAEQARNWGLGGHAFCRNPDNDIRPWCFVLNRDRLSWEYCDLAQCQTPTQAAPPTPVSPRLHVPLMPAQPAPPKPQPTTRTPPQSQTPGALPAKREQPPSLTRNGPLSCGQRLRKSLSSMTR
Sequence of FXIIa (P00748 373-615, chain 2 of 2): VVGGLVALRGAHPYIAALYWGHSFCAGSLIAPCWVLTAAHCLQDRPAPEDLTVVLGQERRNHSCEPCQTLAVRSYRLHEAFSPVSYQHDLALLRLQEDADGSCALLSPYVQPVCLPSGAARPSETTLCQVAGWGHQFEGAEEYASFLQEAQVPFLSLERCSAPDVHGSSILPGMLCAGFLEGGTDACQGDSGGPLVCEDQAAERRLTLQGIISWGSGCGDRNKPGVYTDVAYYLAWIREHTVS

- Ki: 2.9 µM
Substance: Haemadipsa sylvestris antithrombotic peptide Sylvestin
